This is an account of results in paper PMC10671326, “In Vivo and In Vitro Characterization of the RNA Binding Capacity of SETD1A (KMT2F)”.

Data set [1] has as its target T1, SETD1A RRM domain (human, UniProt O15047 89-197). Nature of the data set: MST. To be noted: EMSA: 2 nM biotinylated RNA, LightShift RNA EMSA kit protocol, 30 min room temperature, 6% native PAGE in 0.5x TBE; MST: 40% MST power, LED 20-40%, buffer and …. (In general: A gel shift assay detects complexes by their altered migration in electrophoresis.)
Data set [2] addresses T1, SETD1A RRM domain. Nature of the data set: MST; T-jump; EMSA: 2 nM biotinylated RNA, LightShift RNA EMSA kit protocol, 30 min room temperature, 6% native PAGE in 0.5x TBE; MST: 40% MST power, LED 20-40%, buffer and temperature not in material. The settings on record: protein: recombinant; tags: His (pET28-MHL vector, HisTrap purified); label: uniformly labeled (MST).
For data set [3], the target named is T1, SETD1A RRM domain. Nature of the data set: MST; thermophoresis; EMSA: 2 nM biotinylated RNA, LightShift RNA EMSA kit protocol, 30 min room temperature, 6% native PAGE in 0.5x TBE; MST: 40% MST power, LED 20-40%, buffer and temperature not in material. To be noted: protein: recombinant; tags: His (pET28-MHL vector, HisTrap purified); label: uniformly labeled (MST).

Data set [4] concerns the target T1, SETD1A RRM domain. Description: MST; back diffusion; EMSA: 2 nM biotinylated RNA, LightShift RNA EMSA kit protocol, 30 min room temperature, 6% native PAGE in 0.5x TBE; MST: 40% MST power, LED 20-40%, buffer and temperature not in material. The settings on record: protein: recombinant; tags: His (pET28-MHL vector, HisTrap purified); label: uniformly labeled (MST).

Where “and” joins values, the source holds several entries; their conditions need not be identical. Equal values may be shown once.

T1 sequence (O15047 89-197): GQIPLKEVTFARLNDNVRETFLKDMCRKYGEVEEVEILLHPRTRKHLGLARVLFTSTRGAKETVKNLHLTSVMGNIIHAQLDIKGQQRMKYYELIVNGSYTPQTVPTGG

With SNHG8, in the data set with SETD1A RRM domain [1], the Kd was 870 nM and 2190 nM and 1190 nM.
TP53TG1: in the data set with SETD1A RRM domain [1], the Kd is 670 nM and 690 nM and 1050 nM.
Same read-out and setting: as for SCARNA7, the figure is 1280 nM and 310 nM and 1170 nM; as for “SETD1A mRNA (N-terminal half coding region)”, 210 nM and 60 nM.
For the molecule SETD1B mRNA (RRM coding region), the equilibrium dissociation constant (Kd) with SETD1A RRM domain [1] turned out to be 310 nM.
Same read-out and setting: then NEAT1_2 (12_13k segment), with 1520 nM and 1890 nM and 1110 nM.
Consider AAGAAUGGCCUCGCGGAGGCAUGCGUCAUGCUAGCGUGCGGGGUACUCUU (ssRNA) [Random50 (R50)], for which the Kd with SETD1A RRM domain [2] came to 15500 nM; with SETD1A RRM domain [3] it was 28100 nM; with SETD1A RRM domain [4] it was 11800 nM.

What is called Kd is the concentration at which binding is half-saturated.
